Source: publication PMC2599807 (Biochemistry, 2008)

Target: the molecule itself
Test: SEC + other: dynamic light scattering

B1: O. brevis BxmR (CPx-ATPase metal-regulated repressor), wild-type (natural protein, Oscillatoria brevis, UniProt Q76L30 1-136, looked up)
chain: MSPKSAVNGAISQPHQENDTPTCDRAHLVDCSRVGDIQTQVLNTAKAQRMAEFFSLLGDANRLRLVSVLAKQELCVCDLAATLGMSESAVSHQLRAMRAMRLVSYRKVGRQVFYSLLDRHVLELYRAVAEHLDEES
stoichiometry N: 2
